# Measurements from article PMC11009412, “Pathogenic mutations of human phosphorylation sites affect protein–protein interactions” (Nature Communications, 2024).
# Legend:
# GRB2 = GRB2 (UniProt P62993); experiment: PRISMA peptide-membrane pull-down, SILAC MS; settings: reference: unphosphorylated wild-type peptide; sites Y1092
# PLCG1 = PLCG1 (UniProt P19174); experiment: PRISMA peptide-membrane pull-down, SILAC MS; settings: reference: unphosphorylated wild-type peptide; sites Y1092
# STAT3 = STAT3 (UniProt P40763); experiment: PRISMA peptide-membrane pull-down, SILAC MS; settings: reference: unphosphorylated wild-type peptide; sites Y1092
# [1] = biological target: 14-3-3 beta/alpha (YWHAB) (UniProt P31946); experiment: PRISMA alanine-scan pull-down, LFQ MS; settings: reference: unphosphorylated wild-type peptide; sites S102
# 14-3-3 gamma = 14-3-3 gamma (UniProt P61981); experiment: PRISMA alanine-scan pull-down, LFQ MS; settings: reference: unphosphorylated wild-type peptide; sites S102
# 14-3-3 eta (YWHAH) = 14-3-3 eta (YWHAH) (UniProt Q04917); experiment: PRISMA alanine-scan pull-down, LFQ MS; settings: reference: unphosphorylated wild-type peptide; sites S102
# 14-3-3 zeta (YWHAZ) = 14-3-3 zeta (YWHAZ) (UniProt P63104); experiment: PRISMA alanine-scan pull-down, LFQ MS; settings: reference: unphosphorylated wild-type peptide; sites S102
# 14-3-3 theta (YWHAQ) = 14-3-3 theta (YWHAQ) (UniProt P27348); experiment: PRISMA alanine-scan pull-down, LFQ MS; settings: reference: unphosphorylated wild-type peptide; sites S102
# 14-3-3 epsilon (YWHAE) [2] = biological target: 14-3-3 epsilon (YWHAE) (UniProt P62258); experiment: PRISMA alanine-scan pull-down, LFQ MS; settings: reference: unphosphorylated wild-type peptide; sites S102
# 14-3-3 epsilon (YWHAE) [3] = biological target: 14-3-3 epsilon (YWHAE) (UniProt P62258); experiment: ITC; PEAQ-ITC, 18 °C, 400 µM peptide in the syringe, 25 µM 14-3-3ε in the reaction chamber; 20 mM HEPES pH 7.0, 150 mM NaCl, 2 mM DTT
substance,measurement,setting,value
EGFR (from UniProt P00533) pTyr1092 peptide,other: SILAC ratio phos/wt,GRB2,> 20
same,binding against the reference,PLCG1,stronger
same,binding against the reference,STAT3,stronger
GATAD1 (from UniProt Q8WUU5) pS102 peptide,binding against the reference,[1],stronger
same,binding against the reference,14-3-3 gamma,stronger
same,binding against the reference,14-3-3 eta (YWHAH),stronger
same,binding against the reference,14-3-3 zeta (YWHAZ),stronger
same,binding against the reference,14-3-3 theta (YWHAQ),stronger
same,binding against the reference,14-3-3 epsilon (YWHAE) [2],stronger
GATAD1 phosphopeptide 95-LRNTKYKpSAPAAEKK-109,Kd,14-3-3 epsilon (YWHAE) [3],3.4 µM
